How the values were obtained:
AncSZ = test: phosphorylation enrichment, bacterial display (enrichment ratio); higher = better substrate or ligand; peptides without Tyr show the background
EPHB1 = EPHB1 (UniProt P54762); test: as above
EPHB2 = EPHB2 (UniProt P29323); test: as above
FGFR1 = FGFR1 (UniProt P11362); test: as above
FGFR3 = FGFR3 (UniProt P22607); test: as above
Fer (mouse) = test: as above
Fes = Fes (UniProt P07332); test: as above
Fyn = Fyn (UniProt P06241); test: as above
Hck = Hck (UniProt P08631); test: as above
Jak2 = Jak2 (UniProt O60674); test: as above
MERTK = MERTK (UniProt Q12866); test: as above
c-Abl (mouse) = test: as above
c-Src = test: as above
Grb2 SH2 = Grb2 SH2 (UniProt P62993); test: SH2 binding enrichment of the phosphorylated peptide, bacterial display (enrichment ratio); higher = better substrate or ligand; peptides without Tyr show the background
SHP2-C SH2 = test: as above
c-Src SH2 = test: as above
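For SH2 binding enrichment of the phosphorylated peptide, bacterial display in this document: peptide library displayed on the E. coli surface as eCPX fusions, selected cells deep-sequenced, score is each peptide's frequency after selection divided by its frequency in the input.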
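For phosphorylation enrichment, bacterial display in this document: 11-residue human phosphosite peptides and single-mutation variants displayed on the E. coli surface, counted by deep sequencing, each peptide's frequency after selection divided by its frequency in the unselected input library; frequency after pTyr selection over input frequency; kinase dosed for 20-30% of maximal phosphorylation in three min.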

Jak2, sequence (O60674 whole entry, looked up): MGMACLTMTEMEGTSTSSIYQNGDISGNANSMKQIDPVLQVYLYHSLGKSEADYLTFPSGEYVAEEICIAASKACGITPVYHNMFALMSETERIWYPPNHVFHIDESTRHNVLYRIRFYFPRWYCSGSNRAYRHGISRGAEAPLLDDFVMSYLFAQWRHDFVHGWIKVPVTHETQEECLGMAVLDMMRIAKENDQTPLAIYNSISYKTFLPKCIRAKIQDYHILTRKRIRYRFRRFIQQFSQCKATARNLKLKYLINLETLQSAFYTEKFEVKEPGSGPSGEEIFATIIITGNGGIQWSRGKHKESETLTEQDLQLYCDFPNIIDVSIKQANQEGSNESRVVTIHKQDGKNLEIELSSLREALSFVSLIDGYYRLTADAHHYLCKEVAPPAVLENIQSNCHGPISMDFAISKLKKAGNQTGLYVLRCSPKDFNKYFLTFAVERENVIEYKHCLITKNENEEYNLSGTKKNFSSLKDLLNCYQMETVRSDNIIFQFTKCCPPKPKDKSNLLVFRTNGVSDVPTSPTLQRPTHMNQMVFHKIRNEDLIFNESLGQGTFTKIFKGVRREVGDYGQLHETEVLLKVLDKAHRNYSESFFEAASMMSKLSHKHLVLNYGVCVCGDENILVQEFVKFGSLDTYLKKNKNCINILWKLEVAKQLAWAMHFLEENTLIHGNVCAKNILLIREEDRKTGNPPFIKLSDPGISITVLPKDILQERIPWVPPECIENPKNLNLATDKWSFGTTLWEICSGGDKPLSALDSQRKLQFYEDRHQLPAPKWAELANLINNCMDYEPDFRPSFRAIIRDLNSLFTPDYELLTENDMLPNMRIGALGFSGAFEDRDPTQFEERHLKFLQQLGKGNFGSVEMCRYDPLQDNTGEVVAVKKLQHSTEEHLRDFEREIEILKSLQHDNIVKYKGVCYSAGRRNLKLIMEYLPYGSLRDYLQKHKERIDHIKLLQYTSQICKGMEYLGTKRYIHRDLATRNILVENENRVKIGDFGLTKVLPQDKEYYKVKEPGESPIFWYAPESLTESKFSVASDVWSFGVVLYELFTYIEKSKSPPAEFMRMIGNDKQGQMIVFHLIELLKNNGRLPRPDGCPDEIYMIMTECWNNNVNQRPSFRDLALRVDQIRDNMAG
Hck, sequence (P08631 whole entry, looked up): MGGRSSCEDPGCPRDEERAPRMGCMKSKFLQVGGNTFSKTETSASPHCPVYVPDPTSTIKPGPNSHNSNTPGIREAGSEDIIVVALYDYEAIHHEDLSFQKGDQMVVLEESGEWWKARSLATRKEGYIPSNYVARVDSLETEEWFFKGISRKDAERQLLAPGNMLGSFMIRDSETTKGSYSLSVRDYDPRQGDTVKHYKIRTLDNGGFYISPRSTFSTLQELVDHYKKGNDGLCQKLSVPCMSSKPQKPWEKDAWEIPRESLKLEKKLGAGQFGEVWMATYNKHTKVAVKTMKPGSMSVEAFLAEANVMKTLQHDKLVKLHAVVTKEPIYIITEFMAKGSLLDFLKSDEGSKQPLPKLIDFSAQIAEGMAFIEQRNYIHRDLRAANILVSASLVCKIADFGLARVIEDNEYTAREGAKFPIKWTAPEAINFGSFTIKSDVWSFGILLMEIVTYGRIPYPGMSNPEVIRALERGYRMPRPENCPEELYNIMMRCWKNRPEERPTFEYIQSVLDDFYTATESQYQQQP
FGFR3, sequence (P22607 whole entry, looked up): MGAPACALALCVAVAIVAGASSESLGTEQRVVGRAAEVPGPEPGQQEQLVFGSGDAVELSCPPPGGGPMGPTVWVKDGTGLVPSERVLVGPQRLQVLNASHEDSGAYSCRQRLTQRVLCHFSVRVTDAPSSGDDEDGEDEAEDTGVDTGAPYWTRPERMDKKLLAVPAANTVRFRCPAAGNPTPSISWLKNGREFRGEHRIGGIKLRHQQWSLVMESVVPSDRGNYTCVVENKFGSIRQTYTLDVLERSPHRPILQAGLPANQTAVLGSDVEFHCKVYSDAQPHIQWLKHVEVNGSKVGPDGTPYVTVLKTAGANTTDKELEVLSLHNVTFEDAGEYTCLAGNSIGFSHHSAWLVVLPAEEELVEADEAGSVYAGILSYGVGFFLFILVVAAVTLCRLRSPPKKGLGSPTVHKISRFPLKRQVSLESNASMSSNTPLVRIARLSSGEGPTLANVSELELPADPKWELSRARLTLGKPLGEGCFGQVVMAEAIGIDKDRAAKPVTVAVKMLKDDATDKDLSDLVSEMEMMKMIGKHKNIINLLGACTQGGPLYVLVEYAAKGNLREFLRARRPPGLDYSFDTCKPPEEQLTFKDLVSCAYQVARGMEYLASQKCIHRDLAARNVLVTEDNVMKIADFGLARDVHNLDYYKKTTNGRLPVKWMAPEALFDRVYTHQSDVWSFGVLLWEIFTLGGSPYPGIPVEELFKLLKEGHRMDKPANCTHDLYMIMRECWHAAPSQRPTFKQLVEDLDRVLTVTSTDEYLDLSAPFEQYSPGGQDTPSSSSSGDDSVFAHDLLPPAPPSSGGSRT
FGFR1, sequence (P11362 whole entry, looked up): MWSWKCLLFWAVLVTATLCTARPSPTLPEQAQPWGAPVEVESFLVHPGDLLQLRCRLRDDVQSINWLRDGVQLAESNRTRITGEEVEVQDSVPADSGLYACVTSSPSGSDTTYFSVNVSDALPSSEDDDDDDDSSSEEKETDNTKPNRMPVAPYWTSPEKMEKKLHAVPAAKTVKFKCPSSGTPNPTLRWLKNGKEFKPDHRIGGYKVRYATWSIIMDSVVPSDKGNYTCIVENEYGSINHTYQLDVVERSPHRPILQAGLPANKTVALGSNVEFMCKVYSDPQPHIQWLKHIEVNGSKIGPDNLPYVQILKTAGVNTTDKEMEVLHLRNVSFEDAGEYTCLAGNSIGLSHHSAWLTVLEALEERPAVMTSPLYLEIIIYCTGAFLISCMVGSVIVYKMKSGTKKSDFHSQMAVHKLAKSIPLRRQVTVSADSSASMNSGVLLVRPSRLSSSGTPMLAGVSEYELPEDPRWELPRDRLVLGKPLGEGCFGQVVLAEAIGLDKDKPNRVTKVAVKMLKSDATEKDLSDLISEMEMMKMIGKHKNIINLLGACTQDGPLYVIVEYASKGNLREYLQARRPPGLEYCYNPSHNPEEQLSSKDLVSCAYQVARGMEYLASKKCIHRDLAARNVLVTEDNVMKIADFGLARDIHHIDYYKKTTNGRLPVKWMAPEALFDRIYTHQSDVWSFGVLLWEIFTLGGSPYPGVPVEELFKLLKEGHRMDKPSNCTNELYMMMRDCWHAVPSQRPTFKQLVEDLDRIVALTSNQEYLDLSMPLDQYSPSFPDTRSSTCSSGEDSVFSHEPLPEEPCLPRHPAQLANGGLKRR
MERTK, sequence (Q12866 whole entry, looked up): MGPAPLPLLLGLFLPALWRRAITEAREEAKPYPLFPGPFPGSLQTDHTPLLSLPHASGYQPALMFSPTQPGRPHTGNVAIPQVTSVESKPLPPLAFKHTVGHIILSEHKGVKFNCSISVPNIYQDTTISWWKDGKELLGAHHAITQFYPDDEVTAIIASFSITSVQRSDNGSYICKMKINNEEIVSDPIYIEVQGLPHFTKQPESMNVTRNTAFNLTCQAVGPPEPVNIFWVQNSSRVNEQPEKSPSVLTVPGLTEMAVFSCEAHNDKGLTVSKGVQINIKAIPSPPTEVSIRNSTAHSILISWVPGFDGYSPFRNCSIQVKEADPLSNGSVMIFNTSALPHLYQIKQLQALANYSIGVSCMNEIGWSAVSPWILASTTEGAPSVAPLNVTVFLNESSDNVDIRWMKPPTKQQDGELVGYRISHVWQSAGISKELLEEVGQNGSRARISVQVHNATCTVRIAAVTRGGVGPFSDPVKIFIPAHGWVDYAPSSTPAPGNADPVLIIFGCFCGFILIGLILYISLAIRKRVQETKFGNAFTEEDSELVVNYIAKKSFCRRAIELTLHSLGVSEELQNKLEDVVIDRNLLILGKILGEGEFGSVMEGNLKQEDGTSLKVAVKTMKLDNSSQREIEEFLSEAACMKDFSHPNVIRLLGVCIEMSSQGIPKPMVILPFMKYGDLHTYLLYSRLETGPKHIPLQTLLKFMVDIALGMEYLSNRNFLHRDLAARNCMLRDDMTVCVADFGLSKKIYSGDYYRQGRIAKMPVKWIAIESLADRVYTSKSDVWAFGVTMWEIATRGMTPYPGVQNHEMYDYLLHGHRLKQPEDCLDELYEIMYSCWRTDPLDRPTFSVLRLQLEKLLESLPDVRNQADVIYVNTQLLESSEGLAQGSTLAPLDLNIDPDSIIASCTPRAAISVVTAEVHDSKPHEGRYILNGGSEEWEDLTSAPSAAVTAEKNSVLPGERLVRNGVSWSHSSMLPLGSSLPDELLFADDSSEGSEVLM
Fyn, sequence (P06241 whole entry, looked up): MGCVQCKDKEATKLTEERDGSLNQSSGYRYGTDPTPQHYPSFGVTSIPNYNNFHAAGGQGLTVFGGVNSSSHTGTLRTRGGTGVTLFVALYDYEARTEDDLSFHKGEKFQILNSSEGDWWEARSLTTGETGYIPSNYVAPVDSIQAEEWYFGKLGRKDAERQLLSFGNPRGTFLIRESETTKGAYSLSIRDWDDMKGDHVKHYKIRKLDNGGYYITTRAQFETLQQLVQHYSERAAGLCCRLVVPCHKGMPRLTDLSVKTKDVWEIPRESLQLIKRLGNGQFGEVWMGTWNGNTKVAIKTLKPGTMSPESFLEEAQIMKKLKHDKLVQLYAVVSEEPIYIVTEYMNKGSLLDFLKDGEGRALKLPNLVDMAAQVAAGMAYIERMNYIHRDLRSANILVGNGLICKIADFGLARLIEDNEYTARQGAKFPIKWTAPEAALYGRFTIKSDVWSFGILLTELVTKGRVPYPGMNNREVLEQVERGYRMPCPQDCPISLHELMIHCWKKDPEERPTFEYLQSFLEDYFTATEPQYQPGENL

Sequence | SH2 binding enrichment (Grb2 SH2) | SH2 binding enrichment (SHP2-C SH2) | SH2 binding enrichment (c-Src SH2) | phosphorylation enrichment (AncSZ) | phosphorylation enrichment (EPHB1) | phosphorylation enrichment (EPHB2) | phosphorylation enrichment (FGFR1) | phosphorylation enrichment (FGFR3) | phosphorylation enrichment (Fer (mouse)) | phosphorylation enrichment (Fes) | phosphorylation enrichment (Fyn) | phosphorylation enrichment (Hck) | phosphorylation enrichment (Jak2) | phosphorylation enrichment (MERTK) | phosphorylation enrichment (c-Abl (mouse)) | phosphorylation enrichment (c-Src)
TNYSLYLRSLE [MTM1_Y71_R69S] | 1.01 | 12.1 | 0.669 | 0.952 | 0.722 | 0.671 | 0.456 | 0.659 | 0.555 | 1.15 | 0.423 | 0.601 | 1.29 | 0.602 | 0.574 | 0.42
FSIDHYLGKEM [G6PD_Y202_R198S_YF] | 0.831 | 0.953 | 0.643 | 1.06 | 0.669 | 0.61 | 0.579 | 0.749 | 0.511 | 1.2 | 0.545 | 0.537 | 1.16 | 0.421 | 0.845 | 0.464
PFADPYFDFEI [ZC3H18_Y371_YF] | 0.857 | 1.03 | 0.666 | 1.48 | 0.673 | 0.369 | 9.45 | 6.94 | 0.902 | 1.16 | 0.885 | 0.597 | 1.7 | 0.638 | 0.811 | 4.46
GSRGKYSSGFR [ATM_Y332] | 1.15 | 0.912 | 0.833 | 0.512 | 0.318 | 0.36 | 0.657 | 0.453 | 0.793 | 0.603 | 0.38 | 0.338 | 0.62 | 0.559 | 0.547 | 0.649
IGNGFYFRVFS [MYBPC3_Y1136_YF] | 0.964 | 1.06 | 0.466 | 1.05 | 0.64 | 0.568 | 0.438 | 0.756 | 0.519 | 1.38 | 0.365 | 0.45 | 1.43 | 0.374 | 0.818 | 0.361
IYRASYYRRGD [LTK_Y676] | 0.728 | 0.471 | 0.439 | 0.821 | 0.398 | 0.422 | 0.481 | 0.555 | 0.453 | 0.757 | 0.594 | 1.2 | 0.621 | 0.763 | 0.927 | 0.666
QMVDMYASSFM [AVPR2_Y124_G122D_YF] | 1.07 | 0.575 | 0.707 | 1.29 | 0.992 | 0.805 | 0.779 | 0.923 | 0.9 | 1.31 | 1.35 | 1.58 | 1.47 | 0.707 | 1.2 | 2.34
QDEHGYIFRCF [HSPB1_Y133_S135F] | 0.702 | 0.469 | 0.566 | 1.75 | 1.27 | 0.762 | 0.912 | 1.31 | 0.793 | 2.15 | 0.924 | 0.735 | 1.6 | 0.524 | 1.19 | 0.661

The next lines start with results.

SH2 binding enrichment (Grb2 SH2) | SH2 binding enrichment (SHP2-C SH2) | SH2 binding enrichment (c-Src SH2) | Sequence | phosphorylation enrichment (AncSZ) | phosphorylation enrichment (EPHB1) | phosphorylation enrichment (EPHB2) | phosphorylation enrichment (FGFR1) | phosphorylation enrichment (FGFR3) | phosphorylation enrichment (Fer (mouse)) | phosphorylation enrichment (Fes) | phosphorylation enrichment (Fyn) | phosphorylation enrichment (Hck) | phosphorylation enrichment (Jak2) | phosphorylation enrichment (MERTK) | phosphorylation enrichment (c-Abl (mouse)) | phosphorylation enrichment (c-Src)
0.909 | 1.21 | 1.26 | PARLEYCENEK [IRS1_Y46_Y47C] | 1.75 | 0.947 | 0.823 | 0.809 | 1.16 | 0.816 | 1.74 | 1.12 | 1.04 | 1.76 | 0.762 | 1.08 | 1.05
0.911 | 0.712 | 1.6 | TGDRPYVCPFD [YY1_Y383] | 1.04 | 0.474 | 0.46 | 0.59 | 0.635 | 0.431 | 0.932 | 0.509 | 0.464 | 0.653 | 0.481 | 0.706 | 0.456
1.03 | 0.853 | 0.705 | VKKKLDEEIDQ [CYP17A1_Y329_Y329D] | 0.839 | 0.505 | 0.555 | 0.578 | 0.579 | 0.422 | 0.792 | 0.483 | 0.488 | 0.782 | 0.523 | 0.693 | 0.441
1.05 | 0.734 | 0.738 | IVGRLYRLLTE [SETX_Y1978_L1976R] | 1.1 | 0.481 | 0.494 | 0.418 | 0.644 | 0.37 | 1.12 | 0.376 | 0.387 | 0.954 | 0.396 | 0.676 | 0.331
0.987 | 0.762 | 0.429 | RLGNQHVNVMN [SLC3A1_Y461_Y461H] | 0.793 | 0.694 | 0.612 | 0.567 | 0.691 | 0.504 | 1.09 | 0.627 | 0.505 | 1.09 | 0.53 | 0.947 | 0.717
0.63 | 0.555 | 0.427 | CETMEYLESKQ [BTK_Y511_A508T] | 1.6 | 0.737 | 0.734 | 0.688 | 0.966 | 0.705 | 1.56 | 0.578 | 0.677 | 1.43 | 0.527 | 0.98 | 0.531
0.887 | 0.868 | 1.22 | HGEAFYSEVKP [PAK5_Y182_YF] | 1 | 2.01 | 1.37 | 3.57 | 2.49 | 12.3 | 1.04 | 2.95 | 4.38 | 0.609 | 9.01 | 1.02 | 2.27
0.78 | 0.715 | 0.392 | ITLPIYTKGSE [ANK2_Y1455_E1458G] | 0.63 | 0.599 | 0.478 | 0.392 | 0.502 | 0.451 | 0.759 | 0.581 | 0.645 | 0.571 | 0.481 | 0.446 | 0.529
0.776 | 0.603 | 0.732 | QPGDICHQTWA [GBA_Y244_Y244C] | 0.796 | 0.515 | 0.45 | 0.507 | 0.608 | 0.462 | 1.08 | 0.478 | 0.337 | 0.906 | 0.306 | 0.741 | 0.369

From the supplement of paper PMC10065799, “High-throughput profiling of sequence recognition by tyrosine kinases and SH2 domains using bacterial peptide display” (eLife, 2023)
